According to the supplement of paper PMC7877785:
± gives the uncertainty stated by the source.

Assay: self-splicing fitness, log relative to wild type (ln ratio); higher = more splicing; Tetrahymena group I intron in knt gene, E. coli kanamycin selection, DiMSum; sequences stand for … in CUCUCU…GGAGGGAAAAGUUAUCAGGCAUGCACCUGGUAGCUAGUCUUUAAACCAAUAGAUUGCAUCGGUUUAAAAGGCAAGACCGUCAAAUUGCGGGAAAGGGGUCAACAGCCGUUCAGUACCAAGUCUCAGGGGAAACUUUGAGAUGGCCUUGCAAAGGGUAUGGUAAUAAGCUGACGGACAUGGUCCUAACCACGCAGCCAAGUCCUAAGUCAACAGAUCUUCUGUUGAUAUGGAUGCAGUUCACAGACUAAAUGUCGGUCGGGGAAGAUGUAUUCUUCUCAUAAGAUAUAGUCGGACCUCUCCUUAAUGGGAGCUAGCGGAUGAAGUGAUGCAACACUGGAGCCGCUGGGAACUAAUUUGUAUGCGAAAGUAUAUUGAUUAGUUUUGGAGUACUCGUGGUCG
Procedure, shortened: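 The eight P1ex-region nucleotides of an intron in the knt kanamycin-resistance gene on pET-22b(+) were all randomised and the library put into E. coli BL21(DE3). Six replicate transformations were grown overnight at 37°C or 30°C on LB agar with or without 25 μg/mL kanamycin, together with 100 μg/mL carbenicillin, 50 μM IPTG and 0.2% rhamnose. Colonies were pooled and amplicon-sequenced on an Illumina HiSeq 2500. Fitness from DiMSum is the error-weighted combination of wild-type-normalised replicate fold changes, kanamycin over none.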

| Sequence | self-splicing fitness (ln) (30 °C) | self-splicing fitness (ln) (37 °C) |
| --- | --- | --- |
| CGACAGCAAUAUUACGUUCG | -2.52 ± 0.15 | -2.18 ± 0.22 |
| CGACAGCAAUAUUACGUUUA | -1.81 ± 0.11 | -0.394 ± 0.087 |
| CGAGAGCAAUAUUACGAACA | -2.54 ± 0.3 | -2.84 ± 0.41 |
| CGAGAGCAAUAUUACGAAGC | -3.7 ± 0.28 | -2.02 ± 0.27 |
| CGAGAGCAAUAUUACGACCG | -3.71 ± 0.43 | -1.84 ± 0.33 |
| CGAGAGCAAUAUUACGAGCU | -4.6 ± 0.42 | -3.02 ± 0.47 |
| CGAGAGCAAUAUUACGAGUG | -3.53 ± 0.26 | -0.803 ± 0.14 |
| CGAGAGCAAUAUUACGAUAG | -2.68 ± 0.18 | -2.11 ± 0.18 |
| CGAGAGCAAUAUUACGCCGU | -2.28 ± 0.49 | – |
| CGAGAGCAAUAUUACGCCUG | -3.12 ± 0.25 | -1.73 ± 0.28 |
| CGAGAGCAAUAUUACGCGUC | -3.01 ± 0.36 | -2.64 ± 0.42 |
| CGAGAGCAAUAUUACGCGUU | -2.8 ± 0.36 | -2.46 ± 0.49 |
| CGAGAGCAAUAUUACGCUUC | -2.04 ± 0.37 | -1.61 ± 0.31 |
| CGAGAGCAAUAUUACGGAAA | -1.65 ± 0.33 | – |
| CGAGAGCAAUAUUACGGCGA | -2.72 ± 0.3 | -1.28 ± 0.31 |
| CGAGAGCAAUAUUACGGGAU | -2.56 ± 0.13 | -2.53 ± 0.23 |
| CGAGAGCAAUAUUACGGGGC | -2.35 ± 0.31 | -2.61 ± 0.39 |
| CGAGAGCAAUAUUACGGUGU | -3.56 ± 0.21 | -2.73 ± 0.24 |
| CGAGAGCAAUAUUACGUAGC | -4.39 ± 0.42 | -2.52 ± 0.27 |
| CGAGAGCAAUAUUACGUCAU | -3.96 ± 0.4 | -1.78 ± 0.33 |
| CGAGAGCAAUAUUACGUUAA | -2.26 ± 0.22 | – |
| CGAGAGCAAUAUUACGUUCA | -2.34 ± 0.21 | -2.69 ± 0.31 |
| CGAGAGCAAUAUUACGUUCG | -3.2 ± 0.2 | -1.73 ± 0.23 |
| CGAUAGCAAUAUUACGAACC | -2.68 ± 0.27 | -0.913 ± 0.28 |
| CGAUAGCAAUAUUACGAAGA | – | -2.21 ± 0.4 |

| Sequence | self-splicing fitness (ln) (30 °C) | self-splicing fitness (ln) (37 °C) |
| --- | --- | --- |
| CGAUAGCAAUAUUACGACGC | -2.34 ± 0.39 | 0.00994 ± 0.27 |
| CGAUAGCAAUAUUACGACUA | -1.8 ± 0.26 | -2.13 ± 0.23 |
| CGAUAGCAAUAUUACGACUG | -0.203 ± 0.083 | 0.803 ± 0.1 |
| CGAUAGCAAUAUUACGACUU | -1.4 ± 0.088 | -1.47 ± 0.13 |
| CGAUAGCAAUAUUACGAUAA | -3.37 ± 0.27 | -2.2 ± 0.35 |
| CGAUAGCAAUAUUACGCCGU | -2.9 ± 0.15 | -1.78 ± 0.14 |
| CGAUAGCAAUAUUACGCGGC | -2.93 ± 0.41 | – |
| CGAUAGCAAUAUUACGCGUG | -1.89 ± 0.092 | -0.431 ± 0.1 |
| CGAUAGCAAUAUUACGCUUC | -3.11 ± 0.26 | -2.99 ± 0.47 |
| CGAUAGCAAUAUUACGGAUA | – | -0.838 ± 0.19 |
| CGAUAGCAAUAUUACGGCCU | -1.67 ± 0.19 | -0.545 ± 0.2 |
| CGAUAGCAAUAUUACGGCGG | -0.197 ± 0.077 | 0.211 ± 0.1 |
| CGAUAGCAAUAUUACGGUCC | -1.2 ± 0.21 | -0.541 ± 0.23 |
| CGAUAGCAAUAUUACGGUCG | -4.36 ± 0.29 | -3.39 ± 0.35 |
| CGAUAGCAAUAUUACGGUGA | -2.74 ± 0.2 | -1.94 ± 0.19 |
| CGAUAGCAAUAUUACGUAAU | -2.55 ± 0.15 | -1.92 ± 0.15 |
| CGAUAGCAAUAUUACGUACC | – | -1.56 ± 0.44 |
| CGAUAGCAAUAUUACGUGAG | -0.997 ± 0.07 | -0.771 ± 0.091 |
| CGAUAGCAAUAUUACGUUAA | -3.59 ± 0.21 | -1.15 ± 0.16 |
| CGAUAGCAAUAUUACGUUAC | -3.47 ± 0.28 | -2.17 ± 0.2 |
| CGAUAGCAAUAUUACGUUAU | -3.93 ± 0.33 | -1.61 ± 0.18 |
| CGCAAGCAAUAUUACGAAAU | -3.48 ± 0.21 | -1.86 ± 0.18 |
| CGCAAGCAAUAUUACGAACA | -0.432 ± 0.1 | 0.252 ± 0.1 |
| CGCAAGCAAUAUUACGAAUA | -3.27 ± 0.21 | -2.4 ± 0.2 |
| CGCAAGCAAUAUUACGACGA | -1.48 ± 0.11 | -0.997 ± 0.11 |
